Laboratory results from patent US7368293 (ROCKEFELLER UNIVERSITY, dated 2008).

Biological target: the molecule itself
Test: in vitro translation, gel mobility-shift with 32P APF-1 probe; inferred from heterodimer bands and absence of monomer complexes
Protocol: Since amino acids in the ligand binding domain of the estrogen receptor are known to be necessary for receptor dimerization and subsequent DNA binding (Kumar & Chambon, 1988; Fawell et al., 1990), we determined whether HNF-4 binds to its recognition site as a monomer or as a dimer. The full length cDNA (Xho I) was co-translated in vitro with either of the two truncated products that bind DNA (PflM I and Hga I) and the products were tested in the mobility-shift assay. When the full length and truncated transcripts were translated together, complexes of intermediate mobility were produced with both the APF-1 probe (lanes 3 and 5, FIG. 5D) and the −151 to −130 TTR probe (not shown).

B1: HNF-4 (hepatocyte nuclear factor 4), full length protein translated in vitro from pf7 cDNA (Xho I-cut template) (receptor)
chain: MDMADYSAALDPAYTTLEFENVQVLTMGNDTSPSEGANLNSSNSLGVSALCAICGDRATGKHYGASSCDGCKGFFRRSVRKNHMYSCRFSRQCVVDKDKRNQCRYCRLKKCFRAGMKKEAVQNERDRISTRRSSYEDISLPSINALLQAEVLSQQITSPISGINGDIRAKRIASITDVCESMKEQLLVLVEWAKYIPAFCELLLDDQVALLRAHAGEHLLLGATKRSMVFKDVLLLGNDYIVPRHCPELAEMSRVSIRILDELVLPFQELQIDDNEYACLKAIIFFDPDAKGLSDPGKIKRLRSQVQVSLEDYINDRQYDSRGRFGELLLLLPTLQSITWQMIEQIQFIKLFGMAKIDNLLQEMLLGGSASDAPHAHHPLHPHLMQEHMGTNVIVANTMPSHLTNGQMSTPETPQPSPPSGSGSESYKLLPGAITTIVKPPSAIPQPTITKQEAI
notes: Translated in rabbit reticulocyte lysate from T3/T7 transcripts of pf7 (rat liver cDNA); also called full length cDNA (Xho I); in vitro synthesized HNF-4
B1: binds.
